The source of these data is paper PMC6061791 (Nucleic Acids Research, 2018).

Numbering of substitutions follows the chain as printed. Names and notes keep the numbering of the source.

Data set [1] deals with T1, DapF (T20A), N-terminal 6×His tag (Escherichia coli, UniProt P0A6K1 1-274, T20A).
T1 sequence (looked up): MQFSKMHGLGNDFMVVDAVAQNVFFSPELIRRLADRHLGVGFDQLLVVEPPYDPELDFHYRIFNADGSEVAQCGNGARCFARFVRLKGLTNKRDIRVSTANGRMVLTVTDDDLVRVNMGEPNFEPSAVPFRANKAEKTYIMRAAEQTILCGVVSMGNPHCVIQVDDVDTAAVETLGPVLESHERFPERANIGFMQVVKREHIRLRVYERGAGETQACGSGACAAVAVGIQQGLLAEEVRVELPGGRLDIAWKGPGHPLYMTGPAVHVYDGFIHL
Kind of data set: ITC.

Data set [2] concerns the target T2, DapF (L89A), N-terminal 6×His tag (Escherichia coli, UniProt P0A6K1 1-274, L89A).
T2 sequence (looked up): T1 sequence (looked up) with A20T, L89A
The data set is described as follows: ITC.

Data set [3] deals with T3, DapF (N22A), N-terminal 6×His tag (Escherichia coli, UniProt P0A6K1 1-274, N22A).
T3 sequence (looked up): T1 sequence (looked up) with A20T, N22A
Kind of data set: ITC.

Data set [4] concerns the target T4, DapF (diaminopimelate epimerase), wild type, N-terminal 6×His tag (Escherichia coli, UniProt P0A6K1 1-274).
T4 sequence (looked up): T1 sequence (looked up) with A20T
The data set is described as follows: ITC.

The target of data set [5] is T4, DapF (diaminopimelate epimerase), wild …. Kind of data set: AUC.
For data set [6], the target named is T5, DapF (Y268A), N-terminal 6×His tag (Escherichia coli, UniProt P0A6K1 1-274, Y268A).
T5 sequence (looked up): T1 sequence (looked up) with A20T, Y268A
Kind of data set: AUC.

Another data set has as its target T6, DapF (Escherichia coli DH5alpha, UniProt P0A6K1 1-274).
T6 sequence: T1 sequence (looked up) with A20T
The data set is described as follows: ITC.

Another data set deals with T7, RppH;DapF (Escherichia coli DH5alpha;Escherichia …, UniProt P0A776;P0A6K1 1-176;1-274, |).
T7 sequence 1: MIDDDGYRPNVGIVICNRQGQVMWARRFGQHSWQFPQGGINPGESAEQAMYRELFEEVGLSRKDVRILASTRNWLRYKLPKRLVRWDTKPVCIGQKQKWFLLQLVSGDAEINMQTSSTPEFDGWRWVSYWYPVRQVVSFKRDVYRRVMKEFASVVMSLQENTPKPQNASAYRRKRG
T7 sequence 2: T1 sequence (looked up) with A20T
The data set is described as follows: ITC.

A further data set deals with T8, RppH (Escherichia coli DH5alpha, UniProt P0A776 1-176).
T8 sequence: T7 sequence 1
The data set is described as follows: ITC.

B1: RppH (RNA pyrophosphohydrolase), wild type, GST tag removed (enzyme, Escherichia coli, UniProt P0A776 1-176, looked up)
chain: T7 sequence 1
As for B1, the Kd worked out at 4.2 ± 1.8 nM in data set [1], 5.2 ± 0.9 nM in data set [2], 0.3 ± 0.1 nM in data set [3] and 0.8 ± 0.4 nM in data set [4]. Moreover, the dH in data set [1] is -14.4 ± 0.2 kcal⋅mol^-1; in [2] it was -10.4 ± 0.1 kcal⋅mol^-1; in data set [3] it was -16.4 ± 0.1 kcal⋅mol^-1; in [4], -13 ± 0.1 kcal⋅mol^-1. In addition, the “stoichiometry N” value in data set [1] was 0.97; in data set [2], 1.06; in data set [3] it was 0.96; in [4] it was 0.95; in [5] it was 1 RppH per DapF (2:2 heterotetramer); in [6] it was 1 RppH per DapF (1:1 heterodimer).

B2: RppH (R145A), GST tag removed (enzyme, Escherichia coli, UniProt P0A776 1-176, looked up)
chain: T7 sequence 1 with R145A
Take B2: in data set [4], the Kd amounted to 2.3 ± 1 nM, the dH is -14.6 ± 0.1 kcal⋅mol^-1 and the “stoichiometry N” value was found to be 1.01.

B3: RppH (S128A), GST tag removed (enzyme, Escherichia coli, UniProt P0A776 1-176, looked up)
chain: T7 sequence 1 with S128A
B3: in data set [4], the Kd came out at 12.8 ± 6 nM, the dH was -12.5 ± 0.3 kcal⋅mol^-1 and the “stoichiometry N” value worked out at 0.85.

B4: RppH (D142A), GST tag removed (enzyme, Escherichia coli, UniProt P0A776 1-176, looked up)
chain: T7 sequence 1 with D142A
In the case of B4, in [4], the Kd was found to be 4.8 ± 1.8 nM, the dH was -11 ± 0.2 kcal⋅mol^-1 and the “stoichiometry N” value was determined as 1.05.

For the molecule AGAACAAC (ssRNA, 5'-triphosphate) [8 nt RNA pppAGAACAAC], the binding result is listed as “no binding” with DapF and “binds” with RppH. In the data set with RppH;DapF, the equilibrium dissociation constant (Kd) is approximately 120000 nM.
